One data set can be described thus: dynamic light scattering. The data set is classed as physicochemical. The note with it: DLS at 15 °C, ~21 µM (assuming COMA dimer) or similar concentrations.
Data set [1] deals with T1, fluorescently labelled full-length Ctf19-Mcm21 (Kluyveromyces lactis, UniProt Q6CRN7+Q6CVQ9).
T1 construct: we purified full-length K. lactis; NT-647-NHS red fluorescent dye on lysine side chains (chemical label); made in house; host or cells: Escherichia coli BL21 Rosetta 2(DE3)pLysS
T1 sequence (Q6CRN7 1-270): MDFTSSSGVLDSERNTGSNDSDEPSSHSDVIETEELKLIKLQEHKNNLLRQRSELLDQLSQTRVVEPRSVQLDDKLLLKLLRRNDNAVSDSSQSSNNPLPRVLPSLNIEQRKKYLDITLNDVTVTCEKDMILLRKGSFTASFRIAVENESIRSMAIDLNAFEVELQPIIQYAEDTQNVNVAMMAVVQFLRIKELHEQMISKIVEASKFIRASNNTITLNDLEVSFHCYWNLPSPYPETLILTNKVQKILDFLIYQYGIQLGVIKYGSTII
T1 sequence (Q6CVQ9 1-293): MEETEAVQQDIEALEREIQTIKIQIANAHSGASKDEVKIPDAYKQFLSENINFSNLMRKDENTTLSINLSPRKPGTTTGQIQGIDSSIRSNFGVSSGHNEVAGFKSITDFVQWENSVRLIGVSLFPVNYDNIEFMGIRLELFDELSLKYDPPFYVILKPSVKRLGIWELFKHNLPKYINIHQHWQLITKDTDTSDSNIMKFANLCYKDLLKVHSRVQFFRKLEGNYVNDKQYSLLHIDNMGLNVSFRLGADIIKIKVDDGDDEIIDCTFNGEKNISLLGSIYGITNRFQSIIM
As to the kind of experiment: microscale thermophoresis (MST) of Okp1-derived peptides with full-length Ctf19-Mcm21. The settings on record: NT.115 Monolith, 22–25 °C, ~27 nM NT-647-labelled Ctf19-Mcm21, ITC/MST buffer pH 7.5, thermophoresis + T jump, mean and 68% confidence interval, three independent experiments. It is filed as binding, K. lactis. (In MST a laser heats a spot of the sample, and binding alters the fluorescence response.)
Protocol: For our MST measurements (Wienken et al, 2010), we labelled purified Ctf19‐Mcm21 with a red fluorescent dye (NT‐647‐NHS), which covalently modifies lysine side chains, in company‐provided “labelling buffer” at 22–25°C, according to the manufacturer's instructions (Nanotemper Technologies), with a 1:4 molar ratio of Ctf19‐Mcm21 and dye. We transferred fluorescently labelled Ctf19‐Mcm21 and Okp1‐derived peptide, or variants of Okp1‐derived peptide (Fig 6G), to ITC/MST buffer. We prepared dilution series of peptides, and combined with a uniform volume of Ctf19‐Mcm21 in PCR tubes, before transferring to NT.115 MST premium‐coated glass capillaries (Nanotemper Technologies). For all our measurements, the total Ctf19‐Mcm21 concentration in the capillaries was ~27 nM. We measured MST data on an NT.115 Monolith BLUE/RED instrument (Nanotemper Technologies) at 22–25°C. Samples were heated with an infrared laser (λ: 1,474 nm ± 15 nm) set to 20% MST power (30 s on; 5 s off), and fluorophores excited with a laser (excitation λ: 625 nm; emission λ: 680 nm) set to 60% LED power. For all our MST measurements, fluorescence intensity counts were 350–500. We derived our binding data from the “thermophoresis + T jump” fluorescence signal. For each unique peptide sample, we measured data from three separately prepared dilution series. […]

For data set [2], the target named is T2, full-length Ctf19-Mcm21 (K. lactis) (Kluyveromyces lactis, UniProt Q6CRN7 1-270; Q6CVQ9 1-293).
T2 chain 1: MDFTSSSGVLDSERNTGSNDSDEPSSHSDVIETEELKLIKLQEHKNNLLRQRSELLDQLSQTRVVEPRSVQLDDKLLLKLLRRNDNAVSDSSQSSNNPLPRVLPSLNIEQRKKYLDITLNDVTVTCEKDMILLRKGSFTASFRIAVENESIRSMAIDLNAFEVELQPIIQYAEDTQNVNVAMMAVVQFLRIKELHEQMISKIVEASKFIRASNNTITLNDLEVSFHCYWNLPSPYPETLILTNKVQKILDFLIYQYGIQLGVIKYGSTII
T2 chain 2: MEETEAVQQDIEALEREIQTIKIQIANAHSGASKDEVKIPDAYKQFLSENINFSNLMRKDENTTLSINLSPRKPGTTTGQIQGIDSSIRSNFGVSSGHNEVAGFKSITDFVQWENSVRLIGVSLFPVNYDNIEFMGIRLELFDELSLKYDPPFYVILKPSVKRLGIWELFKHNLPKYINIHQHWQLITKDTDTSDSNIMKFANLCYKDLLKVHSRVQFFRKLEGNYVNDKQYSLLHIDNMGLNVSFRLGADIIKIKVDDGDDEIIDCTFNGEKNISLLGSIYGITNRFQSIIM
As to the kind of experiment: ITC. Background: In ITC the heat of successive injections is recorded.

The target in data set [3] is T3, full-length Ctf19-Mcm21 (K. lactis) (Kluyveromyces lactis, UniProt Q6CRN7 1-270; Q6CVQ9 1-293).
T3 construct: Ctf19 of Kluyveromyces lactis; Mcm21 of Kluyveromyces lactis; for microscale thermophoresis it was labelled on lysine side chains with the red dye NT-647-NHS; also stands for the Ctf19-Mcm21 subassembly of COMA in nanoflow mass spectra; source: E. coli BL21 Rosetta 2(DE3)pLysS, co-expressed, purified
T3 sequence (looked up) 1: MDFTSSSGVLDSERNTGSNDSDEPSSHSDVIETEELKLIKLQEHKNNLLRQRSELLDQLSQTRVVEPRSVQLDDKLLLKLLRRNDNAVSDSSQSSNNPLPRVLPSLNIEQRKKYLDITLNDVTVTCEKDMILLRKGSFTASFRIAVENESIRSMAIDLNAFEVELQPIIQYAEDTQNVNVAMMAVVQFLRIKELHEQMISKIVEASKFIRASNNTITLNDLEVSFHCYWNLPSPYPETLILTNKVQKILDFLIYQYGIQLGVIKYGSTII
T3 sequence (looked up) 2: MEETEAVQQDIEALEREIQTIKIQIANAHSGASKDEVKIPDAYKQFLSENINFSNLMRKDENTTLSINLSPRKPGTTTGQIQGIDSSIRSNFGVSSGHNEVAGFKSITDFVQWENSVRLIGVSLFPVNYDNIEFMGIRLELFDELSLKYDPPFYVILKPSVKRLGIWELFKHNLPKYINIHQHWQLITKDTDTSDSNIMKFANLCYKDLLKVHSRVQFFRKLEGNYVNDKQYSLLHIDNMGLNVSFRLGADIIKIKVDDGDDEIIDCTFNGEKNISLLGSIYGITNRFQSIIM
Nature of the data set: MST; Ctf19-Mcm21 labelled with NT-647-NHS on lysines, ~27 nM; dilution series of peptide; 22-25°C; ITC/MST buffer; three dilution series. The settings on record: both partners purified.

Data set [4] concerns the target T3, full-length Ctf19-Mcm21 (K. lactis). As to the kind of experiment: ITC; peptide at 120 uM injected into 13 uM Ctf19-Mcm21 in the cell, 25°C, ITC/MST buffer; single set of sites fit; three independent measurements. The note with it: both partners purified.
Data set [5] concerns the target T4, Nkp1-Nkp2 heterodimer (K. lactis) (Kluyveromyces lactis, UniProt Q6CPR4 1-210; Q6CSR8 1-151).
T4 construct: Nkp1 of Kluyveromyces lactis; Nkp2 of Kluyveromyces lactis; also called NN; source: E. coli BL21 Rosetta 2(DE3)pLysS, purified
T4 sequence (looked up) 1: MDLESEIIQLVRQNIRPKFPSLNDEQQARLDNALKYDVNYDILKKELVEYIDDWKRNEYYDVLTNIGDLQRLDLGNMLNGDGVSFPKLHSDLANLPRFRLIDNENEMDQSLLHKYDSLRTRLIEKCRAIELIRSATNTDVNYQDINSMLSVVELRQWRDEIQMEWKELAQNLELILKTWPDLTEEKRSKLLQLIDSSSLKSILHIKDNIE
T4 sequence (looked up) 2: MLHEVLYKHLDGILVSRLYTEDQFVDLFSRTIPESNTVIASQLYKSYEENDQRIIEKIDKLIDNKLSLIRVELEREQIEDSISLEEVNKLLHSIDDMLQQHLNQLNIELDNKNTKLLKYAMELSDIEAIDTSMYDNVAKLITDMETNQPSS
Nature of the data set: SEC; analytical SEC of purified K. lactis samples alone and combined, Superdex 200 10/300, 4°C; fractions on SDS-PAGE. The settings on record: both partners purified. (SEC sorts molecules by how far they enter the pores of the column.)

Turning to “COMA-Nkp1-Nkp2: reconstituted COMA bound with Nkp1-Nkp2”, in the data set “dynamic light scattering”, the “hydrodynamic radius (Rh)” value came to 13.7 nm. As to “N330A-K332P: Okp1 peptide variant differing in two residue positions (SNEIYQQDKIDFALPLKTDF)”, the “dissociation constant (Kd)” value in data set [1] was “no detectable binding”.

B1: Okp1-derived synthetic peptide with the Ctf19-Mcm21 binding motif (Okp1 residues 318-337) (peptide, UniProt Q6CJY0 318-337, looked up)
peptide: SNEIYQQDKIDFNLKLKTDF
notes: also called Okp1-derived peptide; source: synthetic peptide (Protein Chemistry core facility, IMP, Vienna)
In the case of B1, the Kd – broadly, the concentration at which binding is half-saturated – in data set [2] was 43 nM; in data set [3] it was around 80 nM; in data set [4], around 40 nM.

B2: Okp1_229-383 (K. lactis) (domain or fragment, Kluyveromyces lactis, UniProt Q6CJY0 229-383, looked up)
chain: DNLNMEYIYAKGESIKKRYKSELDRAEAIERQLIREEEHLKSLQEKGETQAKKRKQVLSKELSELSKTMHPSLSVALSNTFGLIKDDKMSNEIYQQDKIDFNLKLKTDFSKPLISEKEENSLNGLTNAMDNNRELVNEIFGKISALLQPKKNSNE
notes: also called Okp1 variant with segments 1, 2 and 3; source: E. coli BL21 Rosetta 2(DE3)pLysS, co-expressed with Ctf19_D-RWD and Mcm21_D-RWD, purified
As to B2, in data set [5], the binding result was “binds”.

Source of the values: publication PMC5709738 (The EMBO Journal, 2017).
